Experimental data taken from article PMC13334617.

Biological target: ACM2 variant of AC fused to GFP (ACM2-GFP), encoded by plasmid pACM2-Gfp (Bordetella pertussis | not stated) (UniProt P0DKX7)
Assay: two-hybrid

Question: With “calmodulin (CaM) with a 6-histidine tag at its N-terminus and a tetra-cysteine tag at its C-terminus, encoded by plasmid pTCam (from UniProt P0DP23 1-149) (natural protein)” as the substance, how does the ß gal (Rel. Units) read?
Answer: Its ß gal (Rel. Units) is 8 Rel. Units.
